Assay results taken from article PMC11864173 (Science Advances, 2025).

Target: AaRseP(WT)-His8 (Aquifex aeolicus RseP, wild type) (Aquifex aeolicus, UniProt O67776)
Assay: cryo-EM structure

B1: 4A9 Fab (Fab of the anti-AaRseP mouse monoclonal antibody 4A9), with PA tag (Fab, V domains shown)
VH: EVKLVESGGGLVQPGGSLRLSCVTSGFTFTDYYMSWVRQPPGKALEWLAFIRNKVNGYTTEYRASVKGRFTISRDSSQSILYLQVNTLRAEDSATYYCARDRGGNGVYFDYWGQGTTLTVSS
VL: DIVMTQSHKFMSTSVGDRVSITCKASQDVGTDVAWYQQKPGQSPKLLIYWASIRHTGVPDRFTGSGSGTDFTLTISNVQSEDLADYFCQQYSSYPLTFGAGTKLELE
- binding result: binds
